Source: the supplement of paper PMC5998384

Key:
[1] = test system: HeLa Kyoto; assay: solubility in G1/S (NP-40 vs SDS abundance) (log2 ratio); higher = more soluble; settings: cell cycle stage: G1/S
[2] = test system: HeLa Kyoto; assay: melting temperature (median over replicates), in situ; higher = more thermally stable
[3] = test system: HeLa Kyoto; assay: solubility change mitosis vs G1/S (difference of NP-40 vs SDS log2 ratios) (log2 ratio difference); higher = more soluble in mitosis
[4] = test system: HeLa Kyoto; assay: thermal stability score vs G1/S (z-score of summed log2 fold changes over temperatures); higher = more thermally stable than in G1/S
[5] = cell cycle stage: early G1 (4.5 h after nocodazole release)
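For melting temperature (median over replicates), in situ in this document: HeLa Kyoto cells synchronized by double thymidine or nocodazole block, proteins quantified by TMT10plex mass spectrometry, three independent biological replicates.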
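For solubility change mitosis vs G1/S (difference of NP-40 vs SDS log2 ratios) in this document: synchronized HeLa Kyoto cells (double thymidine block for G1/S, nocodazole release for mitosis), protein amounts in NP-40 versus SDS lysates quantified by mass spectrometry, three biological replicates.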
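For solubility in G1/S (NP-40 vs SDS abundance) in this document: HeLa Kyoto cells arrested at G1/S by double thymidine block, proteins quantified by TMT10plex mass spectrometry in mild NP-40 versus SDS extracts, three biological replicates.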
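For thermal stability score vs G1/S (z-score of summed log2 fold changes over temperatures) in this document: synchronized HeLa Kyoto cells, proteins quantified by TMT10plex mass spectrometry, three biological replicates, mitosis taken 0.5 h after nocodazole release, G1/S directly after double thymidine block.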

Sequence | solubility in G1/S (log2) [1] | melting temperature ([2]; cell cycle stage: G1/S) [°C] | melting temperature ([2]; cell cycle stage: mitosis) [°C] | solubility change mitosis (log2) [3] | thermal stability score [4, 5] | thermal stability score ([4]; cell cycle stage: mitosis)
MMEESGIETTPPGTPPPNPAGLAATAMSSTPVPLAATSSFSSPNVSSMESFPPLAYSTPQPPLPPVRPSAPLPFVPPPAVPSVPPLVTSMPPPVSPSTAAAFGNPPVSHFPPSTSAPNTLLPAPPSGPPISGFSVGSTYDITRGHAGRAPQTPLMPSFSAPSGTGLLPTPITQQASLTSLAQGTGTTSAITFPEEQEDPRITRGQDEASAGGIWGFIKGVAGNPMVKSVLDKTKHSVESMITTLDPGMAPYIKSGGELDIVVTSNKEVKVAAVRDAFQEVFGLAVVVGEAGQSNIAPQPVGYAAGLKGAQERIDSLRRTGVIHEKQTAVSVENFIAELLPDKWFDIGCLVVEDPVHGIHLETFTQATPVPLEFVQQAQSLTPQDYNLRWSGLLVTVGEVLEKSLLNVSRTDWHMAFTGMSRRQMIYSAARAIAGMYKQRLPPRTV [PRRC1] | 0.495 | 58.8 | 58 | -0.346 | -1.27 | -1.08
MMEGLDDGPDFLSEEDRGLKAINVDLQSDAALQVDISDALSERDKVKFTVHTKSSLPNFKQNEFSVVRQHEEFIWLHDSFVENEDYAGYIIPPAPPRPDFDASREKLQKLGEGEGSMTKEEFTKMKQELEAEYLAIFKKTVAMHEVFLCRVAAHPILRRDLNFHVFLEYNQDLSVRGKNKKEKLEDFFKNMVKSADGVIVSGVKDVDDFFEHERTFLLEYHNRVKDASAKSDRMTRSHKSAADDYNRIGSSLYALGTQDSTDICKFFLKVSELFDKTRKIEARVSADEDLKLSDLLKYYLRESQAAKDLLYRRSRSLVDYENANKALDKARAKNKDVLQAETSQQLCCQKFEKISESAKQELIDFKTRRVAAFRKNLVELAELELKHAKGNLQLLQNCLAVLNGDT [SNX6] | 0.426 | 51.1 | 50.1 | -0.0637 | 1.82 | 0.524
MMPGPRPRKGPQARGQGVAAAKQMGLFMEFGPEDMLLGMDEAEDDEDLEAELLALTGEAQTTGKKPAPKGQAPLPMAHIEKLAADCMRDVEEEEEEEGLEEDAELLTELQEVLGVDEETEPLDGDEVADPGGSEEENGLEDTEPPVQTAVLTASAPAAQAGASQGLHALLEERIHNYREAAASAKEAGEAAKARRCERGLKTLESQLASVRRGRKINEDEIPPPVALGKRPLAPQEPANRSPETDPPAPPALESDNPSQPETSLPGISAQPVSDLDPDPRALLSSRQREYKVAALSAKRAGELDRARELMRIGKRFGAVLEALEKGQPVDLSAMPPAPEDLKPQQASQAPTAPSVIPPAVERVQPVMAPDVPATPVAPTESQTVLDALQQRLNKYREAGIQARSGGDERKARMHERIAKQYQDAIRAHRAGRKVNFAELPVPPGFPPIPGLESTMGVEEDAVAATLAAAEKLASAEDSAPADKDEDEPPGHLQGEPPAQAPVAKKPARPTVPSSQRLPEPRASSSKESPSPSVREQLALLEARKLQYQRAALQAKRSQDLEQAKAYLRVAKWLEAQIIQARSGRPVDLSKVPSPLTDEEGDFILIHHEDLRLSQKAEEVYAQLQKMLLEQQEKCLLFSKQFMHQGNVAETTRFEKLAQDRKKQLEILQLAQAQGLDPPTHHFELKTFQTVRIFSELNSTEMHLIIVRGMNLPAPPGVTPDDLDAFVRFEFHYPNSDQAQKSKTAVVKNTNSPEFDQLFKLNINRNHRGFKRVIQSKGIKFEIFHKGSFFRSDKLVGTAHLKLERLENECEIREIVEVLDGRKPTGGKLEVKVRLREPLSGQDVQMVTENWLVLEPRGL [CC2D1B] | 0.252 | 50.4 | 50.3 | -0.000596 | 0.395 | 0.256
MMRFMLLFSRQGKLRLQKWYLATSDKERKKMVRELMQVVLARKPKMCSFLEWRDLKVVYKRYASLYFCCAIEGQDNELITLELIHRYVELLDKYFGSVCELDIIFNFEKAYFILDEFLMGGDVQDTSKKSVLKAIEQADLLQEEDESPRSVLEEMGLA [AP1S1] | -0.154 | 53 |  | -0.0672 | -1.3 | -0.738
MMSDEKNLGVSQKLVSPSRSTSSCSSKQGSRQDSWEVVEGLRGEMNYTQEPPVQKGFLLKKRKWPLKGWHKRFFYLDKGILKYAKSQTDIEREKLHGCIDVGLSVMSVKKSSKCIDLDTEEHIYHLKVKSEEVFDEWVSKLRHHRMYRQNEIAMFPHEVNHFFSGSTITDSSSGVFDSISSRKRSSISKQNLFQTGSNVSFSCGGETRVPLWLQSSEDMEKCSKDLAHCHAYLVEMSQLLQSMDVLHRTYSAPAINAIQGGSFESPKKEKRSHRRWRSRAIGKDAKGTLQVPKPFSGPVRLHSSNPNLSTLDFGEEKNYSDGSETSSEFSKMQEDLCHIAHKVYFTLRSAFNIMSAEREKLKQLMEQDASSSPSAQVIGLKNALSSALAQNTDLKERLRRIHAESLLLDSPAVAKSGDNLAEENSRDENRALVHQLSNESRLSITDSLSEFFDAQEVLLSPSSSENEISDDDSYVSDISDNLSLDNLSNDLDNERQTLGPVLDSGREAKSRRRTCLPAPCPSSSNISLWNILRNNIGKDLSKVAMPVELNEPLNTLQRLCEELEYSELLDKAAQIPSPLERMVYVAAFAISAYASSYYRAGSKPFNPVLGETYECIREDKGFQFFSEQVSHHPPISACHAESRNFVFWQDVRWKNKFWGKSMEIVPIGTTHVTLPVFGDHFEWNKVTSCIHNILSGQRWIEHYGEIVIKNLHDDSCYCKVNFIKAKYWSTNAHEIEGTVFDRSGKAVHRLFGKWHESIYCGGGSSSACVWRANPMPKGYEQYYSFTQFALELNEMDPSSKSLLPPTDTRFRPDQRFLEEGNLEEAEIQKQRIEQLQRERRRVLEENHVEHQPRFFRKSDDDSWVSNGTYLELRKDLGFSKLDHPVLW [OSBPL3] | -0.196 | 48.8 | 48.7 | -0.0655 | 0.31 | 0.491
